Measured values as given in patent US20120077731A1 (Ablynx, published 2012).

T1: Human soluble IL-6R (human, UniProt P08887 20-358)
T1 construct: Soluble recombinant form; biotinylated in some assays; also called hIL-6R; human IL-6R
T1 sequence (looked up): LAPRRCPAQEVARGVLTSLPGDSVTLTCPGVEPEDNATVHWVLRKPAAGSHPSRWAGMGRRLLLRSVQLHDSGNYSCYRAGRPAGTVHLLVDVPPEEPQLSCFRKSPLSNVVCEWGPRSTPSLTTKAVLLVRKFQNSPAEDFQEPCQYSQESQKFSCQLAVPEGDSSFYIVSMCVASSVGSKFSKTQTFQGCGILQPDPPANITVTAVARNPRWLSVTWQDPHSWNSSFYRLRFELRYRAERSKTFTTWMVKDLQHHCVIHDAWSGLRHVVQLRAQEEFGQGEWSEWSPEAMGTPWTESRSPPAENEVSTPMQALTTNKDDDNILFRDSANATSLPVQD

T2: Cyno plasma sIL-6R (cynomolgus monkey, UniProt A0A2K5WN54 60-396)
T2 construct: also called cynomolgus sIL-6R
T2 sequence: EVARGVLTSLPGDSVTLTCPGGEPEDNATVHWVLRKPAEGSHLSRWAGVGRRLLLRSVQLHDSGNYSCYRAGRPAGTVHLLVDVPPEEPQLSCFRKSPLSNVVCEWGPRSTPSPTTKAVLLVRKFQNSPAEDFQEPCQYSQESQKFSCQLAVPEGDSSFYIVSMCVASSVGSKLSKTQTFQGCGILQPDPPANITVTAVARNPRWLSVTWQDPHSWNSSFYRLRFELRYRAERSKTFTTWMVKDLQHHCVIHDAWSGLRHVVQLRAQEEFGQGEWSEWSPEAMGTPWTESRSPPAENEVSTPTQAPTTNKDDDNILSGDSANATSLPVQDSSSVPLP

T3: Human plasma sIL-6R (human, UniProt P08887 20-355, limits assumed)
T3 construct: also called plasma-derived human IL-6R
T3 sequence (looked up): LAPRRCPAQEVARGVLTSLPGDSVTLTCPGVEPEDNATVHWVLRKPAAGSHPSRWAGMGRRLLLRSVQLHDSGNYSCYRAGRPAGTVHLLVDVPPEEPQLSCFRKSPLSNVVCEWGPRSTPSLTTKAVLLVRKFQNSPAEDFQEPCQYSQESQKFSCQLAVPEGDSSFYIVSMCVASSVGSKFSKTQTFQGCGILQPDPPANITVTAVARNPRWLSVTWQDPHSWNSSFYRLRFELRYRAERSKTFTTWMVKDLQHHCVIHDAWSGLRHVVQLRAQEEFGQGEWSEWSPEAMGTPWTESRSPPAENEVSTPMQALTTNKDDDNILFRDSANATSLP

T4: Cyno IL-6R (cynomolgus monkey, UniProt A0A2K5WN54 60-396)
T4 construct: also called cynomolgus monkey IL-6R; recombinant cyno sIL-6R
T4 sequence: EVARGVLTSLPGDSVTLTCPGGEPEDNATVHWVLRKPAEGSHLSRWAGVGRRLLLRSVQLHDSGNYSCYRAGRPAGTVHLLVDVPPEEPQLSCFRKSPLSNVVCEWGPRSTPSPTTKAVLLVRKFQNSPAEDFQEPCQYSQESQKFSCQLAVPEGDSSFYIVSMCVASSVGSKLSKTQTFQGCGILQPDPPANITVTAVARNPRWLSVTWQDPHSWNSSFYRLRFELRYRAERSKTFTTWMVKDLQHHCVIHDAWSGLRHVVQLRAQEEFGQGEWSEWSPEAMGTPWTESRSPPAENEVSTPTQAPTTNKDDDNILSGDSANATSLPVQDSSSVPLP


Tests used:
Human soluble IL-6R [1] = molecular target: T1, Human soluble IL-6R; experiment: Biacore T100
Human soluble IL-6R [2] = molecular target: T1, Human soluble IL-6R; experiment: Biacore T100; value marked estimated
Human soluble IL-6R [3] = molecular target: T1, Human soluble IL-6R; experiment: Biacore T100, IL-6R covalently coupled
Cyno plasma sIL-6R [4] = molecular target: T2, Cyno plasma sIL-6R; experiment: plasma potency assay, cyno plasma, 2.4 nM IL6; blocked ligand IL-6
Procedure: (§1) All 5 affinity matured Nanobodies and the sequence optimized Nanobody were also tested in a plasma potency assay. […] TMB was used as substrate.

Human plasma sIL-6R [5] = molecular target: T3, Human plasma sIL-6R; experiment: plasma potency assay, human plasma, 42 nM IL6; blocked ligand IL-6
Procedure: as §1

Human plasma sIL-6R [6] = molecular target: T3, Human plasma sIL-6R; experiment: plasma potency assay, human plasma, 2.4 nM IL6; blocked ligand IL-6
Procedure: as §1

Cyno IL-6R = molecular target: T4, Cyno IL-6R; experiment: SPR Biacore 3000, cyno IL-6R amine-coupled to CM5
Procedure: Remaining reactive groups were inactivated. […] Each sample was injected for 4 min at a flow rate of 45 μl/min to allow for binding to chip-bound antigen. Next, binding buffer without Nanobody was sent over the chip at the same flow rate to allow for dissociation of bound Nanobody.

Cyno plasma sIL-6R [7] = molecular target: T2, Cyno plasma sIL-6R; experiment: plasma potency ELISA, cyno plasma + human IL-6 50 ng/mL; sIL-6R captured on BN-12, bound IL-6 detected; blocked ligand IL-6
Human plasma sIL-6R [8] = molecular target: T3, Human plasma sIL-6R; experiment: plasma potency ELISA, human plasma + human IL-6 50 ng/mL; sIL-6R captured on BN-12, bound IL-6 detected; blocked ligand IL-6
Human soluble IL-6R [9] = molecular target: T1, Human soluble IL-6R; experiment: Biacore, binding to IL-6R
Human soluble IL-6R [10] = molecular target: T1, Human soluble IL-6R; experiment: Alphascreen, inhibition of bio-IL-6 binding to IL-6R
Procedure: Finally streptavidin donor beads were added and after 1 hour incubation the plate was read on the Envision microplate reader. Parental clones were included as reference.

Human soluble IL-6R [11] = molecular target: T1, Human soluble IL-6R; experiment: Alphascreen IL-6/IL-6R competition (IL-6R 0.3 nM, bio-IL-6 3 nM); row EC50 of the fit table, axis [competitor], M; blocked ligand IL-6

| Binder | Kd (Human soluble IL-6R [1]) | kon (Human soluble IL-6R [2]) | koff (Human soluble IL-6R [3]) | IC50 (Cyno plasma sIL-6R [4]) | IC50 (read off the curve) (Human plasma sIL-6R [5]) | IC50 (Human plasma sIL-6R [6]) | Kd (Human soluble IL-6R [9]) | koff (Human soluble IL-6R [9]) | kon (Human soluble IL-6R [9]) | fold difference of IC50 to IL6R03 (Human soluble IL-6R [10]) | IC50 (Human soluble IL-6R [11]) | further results |
| --- | --- | --- | --- | --- | --- | --- | --- | --- | --- | --- | --- | --- |
| IL6R201 (VHH, also called tagless version of IL6R75; 16R201/75) VHH: EVQLVESGGGLVQPGGSLRLSCAASGFTFSDYDIGWFRQAPGKGREGVSGISSSDGNTYYADSVKGRFTISRDNAKNTLYLQMNSLRPEDTAVYYCAAEPPDSSWYLDGSPEFFKYWGQGTLVTVSS | – | – | – | – | – | – | – | – | – | – | – | Kd (Cyno IL-6R): 28.1 nM; koff (Cyno IL-6R): 0.00611 s⁻¹; kon (Cyno IL-6R): 218000 M⁻¹ s⁻¹; IC50 (read off the curve) (Cyno plasma sIL-6R [7]): ~0.6 nM; IC50 (read off the curve) (Human plasma sIL-6R [8]): ~0.04 nM |
| IL6R61 (VHH) VHH: EVQLVESGGGLVQPGGSLRLSCAASGSIFKVNAMGWYRQAPGKGRELVAGIISGGSTNYADSVKGRLTISRDNAKNTVYLQMNSLRPEDTAVYYCSFVTTNSDYDLGRDYWGQGTLVTVSS | – | – | – | – | – | – | 2 nM | 0.0017 s⁻¹ | 850000 M⁻¹ s⁻¹ | ≤ 2 fold | 0.336 nM | – |
| IL6R64 (VHH) VHH: EVQLVESGGGLVQPGGSLRLSCAASGSIFKVNAMGWYRQAPGKGRELVAGIISGGSTNYADSVKGRLTISRDNAKNTVYLQMNSLRPEDTAVYYCAFVTTNSDYDLGRDYWGQGTLVTVSS | – | – | – | – | – | – | – | 0.001 s⁻¹ | – | ≤ 2 fold | 0.108 nM | – |
| IL6R63 (VHH) VHH: EVQLVESGGGLVQPGGSLRLSCAASGSIFKVNAMGWYRQAPGKGRELVAGIISGGSTNYADSVKGRLTISRDNAKNTLYLQMNSLRPEDTAVYYCSFVTTNSDYDLGRDYWGQGTLVTVSS | – | – | – | – | – | – | 3.7 nM | 0.00365 s⁻¹ | 990000 M⁻¹ s⁻¹ | ~4 fold | 0.65 nM | – |
| IL6R62 (VHH) VHH: EVQLVESGGGLVQPGGSLRLSCAASGSIFKVNAMGWYRQAPGKGRELVAGIISGGSTNYADSVKGRFTISRDNAKNTVYLQMNSLRPEDTAVYYCSFVTTNSDYDLGRDYWGQGTLVTVSS | – | – | – | – | – | – | 2.2 nM | 0.00207 s⁻¹ | 929000 M⁻¹ s⁻¹ | ≤ 2 fold | 0.28 nM | – |

Second part, led by results:

| Kd (Human soluble IL-6R [1]) | kon (Human soluble IL-6R [2]) | koff (Human soluble IL-6R [3]) | IC50 (Cyno plasma sIL-6R [4]) | IC50 (read off the curve) (Human plasma sIL-6R [5]) | IC50 (Human plasma sIL-6R [6]) | Kd (Human soluble IL-6R [9]) | koff (Human soluble IL-6R [9]) | kon (Human soluble IL-6R [9]) | fold difference of IC50 to IL6R03 (Human soluble IL-6R [10]) | IC50 (Human soluble IL-6R [11]) | Binder | further results |
| --- | --- | --- | --- | --- | --- | --- | --- | --- | --- | --- | --- | --- |
| 0.033 nM | ~1e+06 M⁻¹ s⁻¹ | 3.3e-05 s⁻¹ | 0.1 nM | ~0.4 nM | 0.13 nM | – | – | – | – | – | PMP20E10 (VHH, not shown: c-myc and (His)6 tags) VHH: EVQLVESGGGLVQPGGSLRLSCAASGSVFKINVMAWYRQAPGKGRELVAGIVSGGSTSYADSVKGRFTISRDNAKNTLYLQMNSLRPEDTAVYYCAFITTESDYDLGRRYWGQGTLVTVSS | – |
| 0.012 nM | ~1e+06 M⁻¹ s⁻¹ | 1.2e-05 s⁻¹ | 0.08 nM | ~0.4 nM | 0.1 nM | – | – | – | – | – | PMP21A10 (VHH, not shown: c-myc and (His)6 tags) VHH: EVQLVESGGGLVQPGGSLRLSCAASGSIFKINVMAWYRQAPGKGRELVAGIVTGGSTSYADSVKGRFTISRDNAKNTLYLQMNSLRPEDTAVYYCAFITTESDYDLGRRYWGQGTLVTVSS | – |
| 0.035 nM | ~1e+06 M⁻¹ s⁻¹ | 3.5e-05 s⁻¹ | – | ~0.4 nM | 0.13 nM | – | – | – | – | – | PMP21D11 (VHH, not shown: c-myc and (His)6 tags) VHH: EVQLVESGGGLVQPGGSLRLSCAASGSVFKINVMAWYRQAPGKGRELVAGIVTGGSTSYADSVKGRFTISRDNAKNTLYLQMNSLRPEDTAVYYCAFITTESDYDLGRRYWGQGTLVTVSS | – |
| 0.033 nM | ~1e+06 M⁻¹ s⁻¹ | 3.3e-05 s⁻¹ | 0.07 nM | ~0.4 nM | 0.13 nM | – | – | – | – | – | PMP20F6 (VHH, not shown: c-myc and (His)6 tags) VHH: EVQLVESGGGLVQPGGSLRLSCAASGSVFKINVMAWYRQAPGKGRELVAGIVSGGSTSYADSVKGRFTISRDNAKNTLYLQMNSLRPEDTAVYYCAFITTNSDYDLGRRYWGQGTLVTVSS | – |
